Results as given in patent publication US9260754B2, “Connexin mutation detection for lymphatic variation and disease” (University of Pittsburgh—Of the Commonwealth System of …, priority 2010, dated 2016).
Substitutions are numbered along the chain they refer to. Names and notes keep the numbering of the source. “Also recorded” adds a separate entry of the source.

B1: G183C: Cx47 missense mutant G183C (547G>T), intracellular loop, construct expressed in HeLa cells (protein, listed as Homo sapiens)
chain: MSWSFLTRLLEEIHNHSTFVGKVWLTVLVVFRIVLTAVGGEAIYSDEQAKFTCNTRQPGCDNVCYDAFAPLSHVRFWVFQIVVISTPSVMYLGYAVHRLARASEQERRRALRRRPGPRRAPRAHLPPPHAGWPEPADLGEEEPMLGLGEEEEEEETGAAEGAGEEAEEAGAEEACTKAVGADCKAAGTPGPTGQHDGRRRIQREGLMRVYVAQLVARAAFEVAFLVGQYLLYGFEVRPFFPCSRQPCPHVVDCFVSRPTEKTVFLLVMYVVSCLCLLLNLCEMAHLGLGSAQDAVRGRRGPPASAPAPAPRPPPCAFPAAAAGLACPPDYSLVVRAAERARAHDQNLANLALQALRDGAAAGDRDRDSSPCVGLPAASRGPPRAGAPASRTGSATSAGTVGEQGRPGTHERPGAKPRAGSEKGSASSRDGKTTVWI
B2: P313L: Cx47 missense mutant P313L (938C>T), C-terminal, construct expressed in HeLa cells (protein, listed as Homo sapiens)
chain: B1 chain with C183G, P313L
B3: S45L: Cx47 missense mutant S45L (134C>T), extracellular loop 1, construct expressed in HeLa cells (protein, listed as Homo sapiens)
chain: B1 chain with S45L, C183G
B4: H409Y: Cx47 missense mutant H409Y (1225C>T), C terminal, construct expressed in HeLa cells or LECs (protein, listed as Homo sapiens)
chain: B1 chain with C183G, H409Y
B5: R257C: Cx47 missense mutant R257C (769C>T), extracellular loop 2, construct expressed in HeLa cells (protein, listed as Homo sapiens)
chain: B1 chain with C183G, R257C

Experiments:
HeLa cells [1] = assay: Wound assay (proliferation/migration) in confluent transfected HeLa cells; type: cell-based, human; conditions: fraction of original wound in HeLa cell monolayer after 24 hrs; mean ± SEM
Method: The wound assay, a measure of proliferation/migration, was performed using differential interference contrast time lapse of over 24 hrs using confluent transfected HeLa cells. Analysis was done using TScratch (Geback T, et al. TScratch: a novel and simple software tool for automated analysis of monolayer wound healing assays. Biotechniques 2009; 46:265-74), mean±SEM of at least 10 positions along wound; the scrape width was normalized to the first image for each position. In all cases a two tailed student's T test was applied with p<0.05 considered significant.

HeLa cells [2] = assay: Cx47 gap junction plaque formation by immunofluorescent confocal microscopy in transfected HeLa cells; type: cell-based, human; conditions: near confluent transfected HeLa cells
Method: Human neonatal foreskin was collected anonymously as discarded tissue according to an IRB protocol. Samples were collected immediately after harvest in DMEM, then fixed in 2% paraformaldehyde for 2 hrs, then stored in 30% sucrose in 1×PBS overnight for cryosectioning, and sectioned in 6 μm slices at −30° C. Transfected (stable and transient) and untransfected HeLa cells were grown to near confluence in coverslip bottom dishes. All cells were rinsed with PBS and fixed with 2% paraformaldehyde. Subsequently, tissue and HeLa cells were processed similarly: following permeabilization with 0.1% Triton X, cells were blocked with 2% BSA. A human Cx47 antibody (ab) was obtained from the S. Scherer laboratory: polyclonal rabbit against amino acids 344-399 in the cytoplasmic C-terminal tail; we used human CNS tissue and positive oligodendrocyte staining as a positive control and primary antibody delete and rabbit IgG as negative controls (data not shown). Cx47 ab was diluted in 0.5% BSA in a 1:200 ratio, applied to cells and incubated at RT for one hour. Mouse monoclonal Proxl (Chemicon) was used as a lymphatic marker for the foreskin samples. Cells were incubated with the secondary abs (Donkey Anti-Rabbit Cy5 and Donkey Anti-Mouse Cy3; Invitrogen) for one hour at RT and washed; Draq5 was used as a nuclear marker. HeLa images were acquired with an inverted Olympus Fluoview 1000 Confocal Microscope 100× oil, 1.4 NA objective. Foreskin images were acquired on a Zeiss Meta LSM 510 inverted confocal microscope with 40× oil, 1.3 N.A. objective. LECs (primary human microvascular adult dermal lymphatics; Lonza) were grown in fibronectin coated coverslip bottom MatTeks dishes in EGM™-2 MV—Microvascular Endothelial Cell Medium-2 (Lonza Inc.) to approximately 80% confluence, and prepared similarly but a commercially available (AbCam) Cx47 ab, polyclonal rabbit against amino acids 41-70 in the human sequence was used along with Drag 5 nuclear marker and phalloidin to mark f-actin.
Immunofluorescence microscopy determines the presence or absence of Cx47 gap junction plaques when the constructs are transiently expressed in HeLa cells. Cx plaques reflect a physiologic accumulation of Cx channels in the cell membrane between cells (tens to thousands of channels); thus plaques are indicative of normal trafficking and gap junction formation at the cell membrane.
Immunofluorescence microscopy determines the presence or absence of Cx47 gap junction plaques when the constructs are transiently expressed in HeLa cells. A human Cx47 antibody was obtained: polyclonal rabbit against amino acids 344-399 in the cytoplasmic C-terminal tail (Orthmann-Murphy J L, et al. Mol Cell Neurosci 2007; 34:629-41); we used human CNS tissue and positive oligodendrocyte staining as a positive control and primary antibody delete as a negative control (data not shown). Cultured HeLa cells were routinely fixed and stained with the primary antibodies against Cx47, along with a nuclear marker, and transfected cells were identified by their EGFP signal. Plaques were imaged using an Olympus Fluoview 1000 confocal microscope, 100× oil objective.

HeLa cell pairs = assay: Dual whole cell patch clamp recording of coupling current in transfected HeLa cell pairs; type: cell-based, human; conditions: for electrical coupling: Table 6 (Example 4); for electrical coupling / elect coupling: HeLa cell pairs, 100 mV step, mean ± SEM; for electrical coupling / functional channels in HeLa cell pairs (in words): transfected HeLa cell pairs, voltage step protocol −100 to +100 mV; for elect coupling: Table 3 (Example 2)
Method: Coupling currents were recorded using simultaneous double whole-cell patch clamp recordings from isolated pairs of cells that were in contact with one another (determined visually) as previously described. Briefly, the pipette solution consisted of (mM): 130 CsCl, 10 EGTA, 10 HEPES, 3 Mg-ATP, 2 Na-ATP, 0.5 CaCl2, pH 7.3. The culture was bathed in a solution consisting of (mM): 140 NaCl, 5 HEPES, 5 glucose, 4 KCl, 2 CsCl, 2 CaCl2, 2 pyruvate, 1 BaCl2, pH 7.3. Transfected HeLas undergo electrophysiologic analysis in a blinded manner. Pairs of cells were chosen for study only if both expressed the GFP marker indicative of successful transfections; both stable and transient transfectants were analyzed. Patch pipettes were fabricated from borosilicate glass, and coupling currents were amplified by Axopatch 200A amplifiers, filtered at 1 KHz, and digitized at 5 KHz for subsequent analysis using pClamp software (Axon Instruments/Molecular Devices; Sunnyvale, Calif.). All experiments were carried out at room temperature (22° C.). Coupling current was quantified by measuring the peak current recorded in the pair when the neighboring cell received a 100 mV step membrane potential change (in both positive and negative directions). Step changes in membrane potential were delivered to each cell in the pair in sequence and the average current recorded in the neighboring cell was determined and divided by 100 to generate coupling current expressed in pA/mV. Means±SEM were calculated and statistical significance using a one-way analysis of variance and Tukey's post-hoc test, p<0.05.
Coupling current is quantified by measuring the peak current recorded in the pair when the neighboring cell receives a 100 mV step membrane potential change (in both positive and negative directions). Step changes in membrane potential are delivered to each cell in the pair in sequence and the average current recorded in the neighboring cell determined and divided by 100 to generate coupling current expressed in pA/mV (FIG. 6C). Replicate measurements (n=3-6) are made on at least two different days. […] The untransfected HeLa cell pairs also show minimal channel function, as predicted.
Electrophysiologic characteristics of GJIC were measured between HeLa cell pairs transfected with the mutant constructs (as indicated by EGFP expression) by dual whole cell patch clamp recording. All experiments were carried out in a blinded manner. Coupling current is quantified by measuring the peak current recorded in the pair when the neighboring cell receives a 100 mV step membrane potential change (in both positive and negative directions). Step changes in membrane potential are delivered to each cell in the pair in sequence and the average current recorded in the neighboring cell determined and divided by 100 to generate coupling current expressed in pA/mV. Untransfected HeLa cells and cells transfected with empty vector (i.e., no hCx47) were used as additional controls.

HeLa cells [3] = assay: Calcein AM scrape loading and dye transfer in stably transfected HeLa cells; type: cell-based, human; conditions: for dye transfer: ratio, rate normalized to untransfected HeLa cells, Calcein AM scrape loading, 10 min, stably transfected HeLa, mean ± SEM
Method: A confluent monolayer of HeLa cells (untransfected and stably transfected, as described above) was grown in DMEM with 10% FBS in coverslip bottom plates (MatTek) and placed in a temperature controlled microincubator (Zeiss). A 10×, 0.4 NA objective was used to collect DIC and GFP images every 5 seconds for 10 minutes without changing media. A pipette loaded with 1 μl Calcein AM (Invitrogen), a gap junction permissive dye with molecular weight 662, −4 charge when intracellular and fluorescent, was used to create a scrape across the monolayer. At least 5 replicate dishes were analyzed on the same day, and WT hCx47 expressing HeLas were grown and assayed as a concurrent control; assays were performed on at least 2 different batches of HeLa cells on different days. Quantitation of the rate of spread was calculated using MetaMorph, by obtaining integrated intensity at the 10th time point, within the first minute of imaging, and then at the endpoint at 10 min, and subtracting the initial intensity from that at the endpoint. Results are reported as mean and SEM, and tested for significance (p<0.05) using an unpaired Student's t-test.
In these mutants, Cx47 appears to concentrate in the ER. Unlike electrophysiologic measurements, dye transfer assays are used to assess GJIC of relatively large molecules. We also found significant differences in GJIC in HeLa cells overexpressing Cx47 lymphedema associated mutations by assessing rates of dye transfer in a conventional scrape assay using stably transfected HeLa cells normalized to rates in untransfected HeLa cells (FIG. 7D; Table 3). […] It is not surprising that the mutants show some differences in GJIC between the electrophysiologic and dye transfer assays given that they are designed to measure different kinds of transport and that Cx channel permeability is now believed to be governed by factors including molecular shape, charge and size, in addition to channel conformation and composition.

[4] = test system: Adult human dermal lymphatic microvascular endothelial cells; assay: Lucifer yellow microinjection dye spread in lymphatic endothelial cells expressing mutant constructs; type: cell-based
Method: Adult human dermal lymphatic microvascular endothelial cells were cultured in EGM™-2 MV (both from Lonza). Cells were electroporated with 2 μg cDNA of the EGFP tagged mutant constructs and then selected with G418 as described above. Cells were microinjected using a combination (1:4 ratio) of 70 kd Texas Red dextran (Invitrogen) to mark injected cell for reference and Lucifer yellow, a known gap junction permeable dye (m.w. 443, −2 charge), to assess change in extent of spread (Abbaci M, et al. Advantages and limitations of commonly used methods to assay the molecular permeability of gap junctional intercellular communication. Biotechniques 2008; 45:33-52, 6-62). All cells were injected using constant conditions and cells were scored for dye spread in tiers from reference cell, using constant exposure time and thresholding, and were imaged using a Nikon TE2000 with temperature controlled motorized stage and Qlmaging Retiga CCD camera. Images were obtained using differential interference contrast (DIC) and standard filters for EGFP (identify expression of mutation), DAPI (for Lucifer yellow) and dsRed (for dextran) preinjection, immediately post-injection and 2 min after injection. Results were calculated as mean SEM and statistical significance was determined in comparison to WT-hCx47-EGFP expressing cells using a Mann-Whitney Test.

Molecule | wound assay (HeLa cells [1]) | Cx47 plaque formation (in words) (HeLa cells [2]) | electrical coupling (HeLa cell pairs) [pA/mV] | electrical coupling / functional channels in HeLa cell pairs (in words) (HeLa cell pairs) | dye transfer (HeLa cells [3]) | elect coupling (HeLa cell pairs) [pA/mV] | LEC spread ([4]; Dye spread to tiers of LECs after 2 min, Lucifer yellow microinjection, mean ± SEM) [tiers] | dye transfer of Lucifer yellow after microinjection compared to WT-hCx47-EGFP expressing LECs (in words) ([4]; LECs expressing the mutations) | Calcein AM dye transfer compared to WT-hCx47 transfected HeLa cells (in words) (HeLa cells [3]; stably transfected HeLa cells, scrape assay)
B1 | 0.68 | Cx47 intercellular plaques | 68.6 | increased electrical coupling; also recorded: increased peak coupling currents |  |  |  |  | 
B2 |  |  |  | well coupled | 2.10 | 37.6 |  |  | 
B3 |  | absence; also recorded: fail to demonstrate Cx 47 plaques |  | absence of coupling; also recorded: do not exhibit functional channels | 1.11 | 0.1 |  |  | 
B4 | 0.73 | Cx47 intercellular plaques | 46.4 | well coupled |  |  | 0.07 | dramatically impaired dye transfer | 
B5 |  | absence; also recorded: fail to demonstrate Cx 47 plaques |  | absence of coupling; also recorded: do not exhibit functional channels | 2.56 | 0.0 |  |  | significantly greater dye transfer
